According to patent publication US20050064507A1, “Determining kinase specificity” (priority 2003, published 2005):

Key:
PKC-theta = molecular target: T1, PKC-theta (Homo sapiens, UniProt Q04759); test: In vitro kinase assay: peptide phosphorylation by PKC-theta; format: biochemical; conditions: for PKC theta phosphorylation: normalized to best substrate
T1 construct: His-tag; made in house; host or cells: baculovirus-infected Sf9 cells
Summary of the method: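 Recombinant human PKC-theta, expressed in baculovirus-infected Sf9 cells and purified on a nickel chelating column, was incubated with biotinylated peptides, 100 μM ATP containing ^32P-gamma ATP, and PKC buffer with CaCl2, MgCl2, phosphatidyl serine and PMA at 30° C. Reactions were stopped with ATP/EDTA. Peptides were captured on streptavidin-coated plates, and phosphorylation was normalized to the best substrate.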

PKC = test: In vitro phosphorylation by PKC (average of isoforms alpha, epsilon, delta, theta); format: biochemical; conditions: for PKC average: average of PKC-alpha, -epsilon, -theta, normalized to best substrate; for average (phosphorylation by PKC-theta, -delta, -epsilon, -alpha): average over PKC-theta, -epsilon and -alpha at 10 and 1 uM peptide, relative to best substrate

T1 sequence (Q04759 whole entry): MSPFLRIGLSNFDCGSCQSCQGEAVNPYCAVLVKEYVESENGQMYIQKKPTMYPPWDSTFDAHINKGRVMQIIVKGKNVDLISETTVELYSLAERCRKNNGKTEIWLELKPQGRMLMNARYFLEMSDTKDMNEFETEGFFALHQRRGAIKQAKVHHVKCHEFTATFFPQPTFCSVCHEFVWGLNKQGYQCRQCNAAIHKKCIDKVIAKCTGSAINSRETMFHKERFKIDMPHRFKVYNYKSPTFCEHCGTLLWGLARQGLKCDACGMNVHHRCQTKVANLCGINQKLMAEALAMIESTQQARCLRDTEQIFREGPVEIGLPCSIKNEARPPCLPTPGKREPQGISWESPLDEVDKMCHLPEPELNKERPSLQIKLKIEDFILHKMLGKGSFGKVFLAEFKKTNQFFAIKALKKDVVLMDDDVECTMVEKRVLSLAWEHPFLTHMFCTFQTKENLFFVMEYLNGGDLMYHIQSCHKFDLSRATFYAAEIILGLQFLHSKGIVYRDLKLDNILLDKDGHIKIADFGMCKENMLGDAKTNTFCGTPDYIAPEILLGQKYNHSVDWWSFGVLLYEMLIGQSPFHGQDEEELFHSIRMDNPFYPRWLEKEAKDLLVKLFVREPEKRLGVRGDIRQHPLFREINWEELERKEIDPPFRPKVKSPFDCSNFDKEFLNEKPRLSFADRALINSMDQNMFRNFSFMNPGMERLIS

Substance	PKC theta phosphorylation (PKC-theta) [%]	PKC average (PKC) [%]	phosphorylation by PKC theta (PKC-theta; peptide concentration 1 uM)	phosphorylation by PKC theta (PKC-theta; peptide concentration 10 uM)	average (phosphorylation by PKC-theta, -delta, -epsilon, -alpha) (PKC)
98 (AGPLRKSSLKKGGRL) [compound 98]	22	27	–	–	–
81 (KRERKTSSKSSVRKRR) [compound 81]	46	56	–	–	–
153 (TYLLPDKSRQGKRKTSIKRD) [compound 153]	–	–	22	18	23
151 (PQNSLKASNRKKKRTSFKRK) [compound 151]	–	–	25	19	24
148 (RELEQLKAEYLERRASRRRA) [compound 148]	–	–	34	34	26
150 (VDPFYEMLAARKKRISVKKK) [compound 150]	–	–	35	35	24
87 (RQGKRKTSIKRDTVNPL) [compound 87]	65	47	–	–	–
152 (DLIEGRKGAQIVKRASLKRG) [compound 152]	–	–	31	30	23
88 (KKPFKLSGLSFKRNRKE) [compound 88]	38	43	–	–	–
149 (RVVQSVKHTKRKSSTVMK) [compound 149]	–	–	13	14	25
97 (KKRSSKKEASMKKVVRP) [compound 97]	31	28	–	–	–
91 (VHYTSKDTLRKRHYWR) [compound 91]	10	40	–	–	–
